A word on the Kd: it is the free concentration of one partner at which half of the binding sites on the other are occupied at equilibrium, for simple one-to-one binding. Lower therefore signals tighter binding.

The assay deals with synthetic collagen peptides. Kind of assay: ELISA-like assay: biotin-labeled peptides titrated on plate-immobilized D-CHP, 4-parameter Hill fit. For orientation: In an ELISA, binding on a coated surface is turned into a signal by an enzyme label.

Take “D-CHP, dimeric collagen hybridizing peptide [Ac-(GPO)6-G3]2-K-GK (designed binder)”: the Kd lay in the range of 10 to 270 nM.

The values above are taken from US20220050116A1.
